# Target: 266 human kinases (Homo sapiens, UniProt Q9HCP0)
# Test: biochemical
# Type: biochemical
# Settings: CK1γ1(h); 100 μM
# Outline: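 Steps: kinase transfers radiolabelled phosphate from ATP onto a positively charged substrate; the substrate is trapped on a negatively charged filter; bound radioactivity is counted by scintillation and compared with uninhibited (100%) activity.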
# 266 human kinases, sequence (Q9HCP0 whole entry): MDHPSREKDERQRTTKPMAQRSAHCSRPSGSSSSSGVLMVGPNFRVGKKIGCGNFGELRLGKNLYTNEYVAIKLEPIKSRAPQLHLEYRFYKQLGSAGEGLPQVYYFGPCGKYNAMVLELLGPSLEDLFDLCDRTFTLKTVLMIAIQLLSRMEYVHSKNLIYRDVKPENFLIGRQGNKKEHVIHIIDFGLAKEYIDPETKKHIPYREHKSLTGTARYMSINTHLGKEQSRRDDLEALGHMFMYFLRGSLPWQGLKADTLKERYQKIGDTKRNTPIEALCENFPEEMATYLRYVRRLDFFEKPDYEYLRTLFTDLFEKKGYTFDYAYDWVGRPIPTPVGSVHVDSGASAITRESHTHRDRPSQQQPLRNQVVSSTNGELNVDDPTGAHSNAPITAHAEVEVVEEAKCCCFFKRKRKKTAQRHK
sequence,measurement,value
YARAAARQARAKALNRQLGVA (mammal) [MMI-0200],% activity,98%
